Assay results: US20260116960A1 (SHANGHAI HONGCHENG BIOPHARMACEUTICAL, published 2026)

B1: 202F1-hIgG4 antibody (antibody, V domains shown)
VH: EVQLLESGGGLVQPGGSLRLSCAASGSIFSINHMAWYRQAPGKQRELVAGVNSRGTTNYVDSVKGRFTISRDNSKNTLYLQMNSLRAEDTAVYYCRALGGAVAAWGQGTLVTVSS
B2: CQ1-3/1-11-hIgG4 antibody (antibody, V domains shown)
VH: EVQLVESGGGLVQPGGSLRLSCAASGFTFSSYGMSWVRQAPGKGLEWVSTISGGGRDTYYPDSVKGRFTISRDNSKNTLYLQMNSLRAEDTAVYYCARQNGITWFADWGQGTLVTVSS
VL: DIQMTQSPSSLSASVGDRVTITCRASESVDNYGISFMNWYQQKPGKAPKLLIYAASNQGSGVPSRFSGSGSGTDFTLTISSLQPEDFATYYCQQSKEVPWTFGGGTKVEIKR
notes: also called anti-PD-1 antibody CQ1-3/1-11

Columns and labels:
[1] = target: T1, human CTLA-4 on the cell surface (human, UniProt P16410 36-223); experiment: flow cytometry competition, CHO-hCTLA-4 cells, biotin-human CD80
T1 construct: whole, on cells; also called CHO-hCTLA-4 cells; CHOK1-hCTLA4 cells
T1 sequence (P16410 36-223): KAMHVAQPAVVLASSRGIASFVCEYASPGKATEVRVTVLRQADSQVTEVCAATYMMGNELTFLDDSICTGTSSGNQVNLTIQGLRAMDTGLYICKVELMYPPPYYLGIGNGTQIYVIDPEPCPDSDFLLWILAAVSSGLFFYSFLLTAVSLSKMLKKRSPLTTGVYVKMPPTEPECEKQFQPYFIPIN
Description: CHO-hCTLA-4 cells were obtained by trypsin digestion, washed twice with PBS containing 2% FBS (FACS buffer), and resuspended in FACS buffer. 200 μL of the cells were added to a 96-well U-bottom plate, approximately 2×10⁵ cells/well. After centrifugation at 300 g for 5 minutes, the supernatant was discarded. […] After washing three times with FACS buffer, 100 μL/well of 1:800 diluted PE Streptavidin was added and incubated at 4° C. for 50 min. After washing three times with FACS buffer, 150 μL/well of PBS was added to resuspend the cells, and the fluorescence signal was detected on a flow cytometer (BECKMAN COULTER cytoFLEX). The four-parameter model was used to fit the binding activity and the IC₅₀ value of the blocking activity of each antibody was calculated.

[2] = target: T1, human CTLA-4 on the cell surface; experiment: flow cytometry, CHO-hCTLA-4 cells, batch FACS#3
[3] = target: T1, human CTLA-4 on the cell surface; experiment: flow cytometry on activated human T cells (CD3+), PE anti-human IgG Fc
Description: (§1) Human peripheral blood mononuclear cells (PBMCs, Miaoshun (Shanghai) Biotechnology Co., Ltd., Catalog No.: A19K154025) were rapidly thawed in a 37° C. water bath, resuspended in T cell isolating solution, and counted. After centrifugation at 400 g for 10 minutes, the supernatant was removed and the cells were resuspended to 5×10⁷ cells/mL with T cell separation buffer. T cells were isolated according to the procedure of a T cell isolation kit (Stemcell, Catalog No.: 19051), and the obtained T cells were resuspended in culture medium. The cells were counted using NucleoCounter NC-200 and the T cell density was adjusted to approximately 1×10⁶ cells/mL. Dynabeads containing anti-CD3 and anti-CD28 antibodies (Invitrogen™, Catalog No.: 11132D) and 10 ng/ml hIL-2 (Peprotech, Catalog No.: 200-02) were added and cultured in a 37° C., 5% CO₂ incubator for 3 days. After removing Dynabeads and supernatant, the activated T cells were resuspended in FACS buffer. The cell density was adjusted to about 1×10⁶ cells/mL, and 100 μL of cell solution was added into a 96-well U-bottom plate, 1×10⁵ cells/well. After centrifugation at 500 g for 5 minutes, the supernatant was discarded and 100 μL of the trispecific antibody solution of the present application serially diluted 3-fold with FACS buffer was added in triplicate, with a starting concentration of 200 nM. After mixing, incubated at 4° C. for 60 minutes. After centrifugation and washing three times with FACS buffer, 100 μL/well of PE anti-human IgG Fc (Biolegend, Catalog No.: 366903) was added and incubated at 4° C. for 50 minutes. After washing the plate three times with FACS buffer, 100 μL/well of BV421 anti-human CD3 antibody (OKT3) (Biolegend, Catalog No.: 317344) was added and incubated at 4° C. for 50 minutes. After washing the plate three times with FACS buffer, 70 μL/well of PBS solution was added to resuspend the cells, and the fluorescent signal on CD3 T cells was detected on a flow cytometer (BD Cellesta). The binding activity was fitted using a four-parameter model, and the EC₅₀ value of each antibody binding to T cells was calculated.

[4] = target: T1, human CTLA-4 on the cell surface; experiment: flow cytometry competition, 293T-hPD-1-hCTLA-4 cells (PD-1 co-expressed), biotin-human CD80
Description: PD-1 and CTLA-4 are co-expressed on functionally exhausted T cells in the tumor microenvironment, and the expression level of PD-1 is higher than that of CTLA-4. […] 200 μL of the cells were added to a 96-well U-bottom plate, approximately 1.4×10⁵ cells/well. After centrifugation at 300 g for 5 minutes, the supernatant was discarded. […] After washing three times with FACS buffer, 100 μL/well of 1:800 diluted PE Streptavidin was added and incubated at 4° C. for 50 min. After washing three times with FACS buffer, 150 μL/well of PBS was added to resuspend the cells, and the fluorescence signal was detected on a flow cytometer (BECKMAN COULTER cytoFLEX). The binding activity was fitted using a four-parameter model, and the IC₅₀ value of the blocking activity of each antibody was calculated.

[5] = target: T2, human PD-1 on the cell surface (human, UniProt Q15116 25-288); experiment: flow cytometry competition, 293T-hPD-1 cells, biotin-human PD-L1
T2 construct: whole, on cells; also called cell surface PD-1
T2 sequence (Q15116 25-288): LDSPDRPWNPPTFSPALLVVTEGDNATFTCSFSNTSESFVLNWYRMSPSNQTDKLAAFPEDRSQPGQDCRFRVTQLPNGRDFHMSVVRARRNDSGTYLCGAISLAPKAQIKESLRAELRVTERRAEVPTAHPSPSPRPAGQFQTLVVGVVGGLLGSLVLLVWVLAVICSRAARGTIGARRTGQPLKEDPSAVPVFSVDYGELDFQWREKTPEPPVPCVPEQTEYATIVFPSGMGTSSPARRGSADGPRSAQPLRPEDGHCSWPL
Description: 50 μL of antibody solution serially diluted 3-fold in FACS buffer was added in triplicate, with a starting concentration of 200 nM. After mixing, incubated at 4° C. for 60 minutes. After washing three times with FACS buffer, 100 μL/well of 1:800 diluted PE Streptavidin was added and incubated at 4° C. for 50 min. After washing three times with FACS buffer, 150 μL/well of PBS was added to resuspend the cells, and the fluorescence signal was detected on a flow cytometer (BECKMAN COULTER cytoFLEX). The four-parameter model was used to fit the binding activity and the IC₅₀ value of the blocking activity of each antibody was calculated.

[6] = target: human PD-1 protein (Acro, PD1-H5257) (human, UniProt Q15116 25-167); experiment: competitive ELISA, PD-1 coated, biotin-PD-L1 as labelled ligand
Sequence of human PD-1 protein (Acro, PD1-H5257) (Q15116 25-167 limits assumed): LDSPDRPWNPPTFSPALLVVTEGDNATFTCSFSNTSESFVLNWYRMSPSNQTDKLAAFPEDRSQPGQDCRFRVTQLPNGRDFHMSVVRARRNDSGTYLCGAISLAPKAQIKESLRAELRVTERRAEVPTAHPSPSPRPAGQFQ
Description: The next day, the plate was washed three times with PBS solution and blocked with 1% BSA-PBS solution at 37° C. for 1 hour. […] 100 μL of the antibody-protein mixture was added to each well of the blocked 96-well ELISA plate and incubated at 37° C. for 1 hour. After washing four times with PBST, 100 μL of Strep-HRP (BD, Catalog No. 554066) diluted 1:5000 was added to each well of the ELISA plate and incubated at 37° C. for 1 hour. After washing 4 times with PBST, TMB was used for color development. The absorbance at 450 nm and 630 nm was detected by a microplate reader, and OD450-OD630 was calculated. The fluorescence intensity was fitted using a four-parameter model, and the IC₅₀ value of the blocking activity of each antibody was calculated.

[7] = target: T2, human PD-1 on the cell surface; experiment: flow cytometry, 293T-hPD-1 cells, batch FACS#1
Description: (§2) After centrifugation at 300 g for 5 minutes, the supernatant was discarded. The antibodies were serially diluted 3-fold with FACS buffer to obtain two gradient series solution FACS #1 and FACS #2, with the starting concentration of 200 nM (Table 5, FACS #1) or 100 nM (Table 5, FACS #2, FIG. 2), respectively. Then 100 μL/well was added to a 96-well plate in triplicate, mixed, and incubated at 4° C. for 60 min. The plate was centrifuged and washed three times with FACS buffer. 100 μL/well of 1:800 diluted AF647-anti-hIgG(H+L) (Jackson, Catalog No.: 109-605-003) was added and incubated at 4° C. for 50 minutes. After washing the plate three times with FACS buffer, 100 μL/well of FACS buffer was added to resuspend the cells, and the fluorescence signal was detected on a flow cytometer (BECKMAN COULTER cytoFLEX). The binding activity was fitted using a four-parameter model to calculate the EC₅₀ value of each antibody binding to PD-1.

[8] = target: T3, human PD-1 protein (Acro, Catalog No. PD1-H5221) (human, UniProt Q15116 25-167); experiment: ELISA, plate coated with human PD-1 protein
T3 construct: Bought protein; also called human PD1-his; not shown: his tag
T3 sequence (Q15116 25-167 limits assumed): as above
Description: ELISA was used to determine the activity of the trispecific antibodies binding to the PD-1 protein: 1 μg/mL human PD-1 protein (Acro, Catalog No.: PD1-H5221) was used to coat a high-adsorption 96-well ELISA plate and incubated at 4° C. overnight. On the next day, the plate was washed three times with PBST solution and blocked with 1% BSA-PBS solution at 37° C. for 1 hour. At the same time, 3-fold gradient dilutions of the antibody were prepared with 1% BSA-PBS solution, with a starting concentration of 10 nM. The antibodies of each gradient concentration were added to the blocked 96-well ELISA plate at 100 µL/well in triplicate and incubated at 37° C. for 1 hour. The plate was then washed three times with 0.05% PBST solution, and 100 μL/well of HRP-labeled secondary antibody (Sigma, Catalog No.: A0170) diluted at 1:5000 was added to the ELISA plate and incubated at 37° C. for 1 hour. The plate was washed three times with 0.05% PBST solution and developed with TMB. The absorbance of the 96-well ELISA plate at 450 nm was detected by an ELISA reader. The OD₄₅₀ value was fitted using a four-parameter model to calculate the EC₅₀ value of each antibody binding to PD-1.

[9] = target: T2, human PD-1 on the cell surface; experiment: flow cytometry, 293T-hPD-1 cells, batch FACS#2
Description: as §2

[10] = target: T3, human PD-1 protein (Acro, Catalog No. …); experiment: BLI (Octet RED96e), antibody on AHC sensor, antigen as analyte 6.25-100 nM, 1:1 model
Description: Octet® RED96e (ForteBio) was used to detect the affinity of trispecific antibodies to human PD-1, CTLA-4 and VEGFA. The specific method was as follows: the AHC Sensor was immersed in PBST (PBS containing 0.02% Tween) buffer for 10 minutes to activate the Sensor. The ligand (antibody to be tested) was diluted to 5 μg/mL with PBST buffer. […] The diluted ligand and analyte were added to the corresponding wells at 200 μL/well in triplicate. Program parameter settings: loading: 180 s, association: 180 s, dissociation: 600 s, regeneration: Gly-HCl pH 1.5, 30s, regeneration 3 times. […] Curve fit acceptance criteria: Full R\hat{ }2≥0.95.

[11] = target: T2, human PD-1 on the cell surface; experiment: flow cytometry on activated human T cells (CD3+), PE anti-human IgG Fc
Description: as §1

[12] = target: T2, human PD-1 on the cell surface; experiment: blocking of PD-L1 binding to cell surface PD-1, comparison with pembrolizumab; comparison run with pembrolizumab, cell surface PD-1
[13] = target: T2, human PD-1 on the cell surface; experiment: flow cytometry, 293T-hPD-1 cells, comparison with pembrolizumab
Description: as §2

Binder	IC50 [1] [nM]	EC50 [2] [nM]	EC50 [3] [nM]	IC50 [4] [nM]	IC50 [5] [nM]	IC50 [6] [nM]	EC50 [7] [nM]	EC50 [8] [nM]	EC50 [9] [nM]	Kd [10] [nM]	EC50 [11] [nM]	IC50 [12] [nM]	EC50 [13] [nM]
B1	10.1	2.31	1.46	4.74									
B2					4	0.731	2.8	0.041	1.12	1.96	0.244	3.19	4.34
